The target of assay [1] is T1, FcγRIIB (human, UniProt P31994 46-217, limits assumed).
T1 construct: Soluble protein used in SPR
T1 sequence (looked up): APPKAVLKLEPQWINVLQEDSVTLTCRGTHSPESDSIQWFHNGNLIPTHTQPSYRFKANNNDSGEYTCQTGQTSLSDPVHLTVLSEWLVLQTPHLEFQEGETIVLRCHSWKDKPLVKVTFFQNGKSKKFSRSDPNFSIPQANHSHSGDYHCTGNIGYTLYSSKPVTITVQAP
The assay is described as follows: SPR; molecule captured on CM5 chip, FcγR as analyte; steady-state fit. As for the experimental part:
(§1) Binding assays using SPR were performed to determine the binding affinity of the exemplary molecules. Molecules were captured on a CM5 SPR chip. Increasing concentrations of FcγR analyte (FcγRIIA167H, FcγRIIA167R or FcγRIIB) were subsequently injected over the captured molecules and a single dissociation performed using single cycle kinetics. The data was then analyzed using steady state analysis which is suitable for low affinity interactions. In particular, a plot of response at equilibrium against the molecule concentration was generated.

Assay [2] has as its target T2, FcγRIIA167R (UniProt P12318 36-218).
T2 construct: Soluble protein used in SPR
T2 sequence (looked up): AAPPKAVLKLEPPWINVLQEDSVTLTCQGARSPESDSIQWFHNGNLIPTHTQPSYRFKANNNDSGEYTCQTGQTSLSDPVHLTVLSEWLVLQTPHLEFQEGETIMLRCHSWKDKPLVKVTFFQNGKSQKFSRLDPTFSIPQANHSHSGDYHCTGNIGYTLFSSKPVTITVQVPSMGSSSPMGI
The description is as above. As for the experimental part:
as §1

Assay [3] addresses T3, FcγRIIA167H (UniProt P12318 36-218).
T3 construct: Soluble protein used in SPR
T3 sequence (looked up): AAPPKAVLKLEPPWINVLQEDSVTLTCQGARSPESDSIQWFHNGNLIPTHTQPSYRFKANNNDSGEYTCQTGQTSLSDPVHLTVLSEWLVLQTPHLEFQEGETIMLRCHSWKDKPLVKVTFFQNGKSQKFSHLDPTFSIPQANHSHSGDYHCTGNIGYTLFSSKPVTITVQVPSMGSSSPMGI
The assay is described as follows: SPR, molecule captured on sensor chip, FcγRIIA167H as analyte, steady-state plot of response against concentration. The procedure: as §1
Background: SPR reads the build-up and loss of mass on a sensor chip optically.

B1: Variant G11 (Fc fusion)
chain 1: MGCSSPPCECHQEEDFRVTCKDIQRIPSLPPSTQTLKLIETHLRTIPSHAFSNLPNISRIYVSIDVTLQQLESHSFYNLSKVTHIEIRNTPNLTYIDPDALKELPLLKFLGIFNTGLKMFPPLTKVYSTDIFFILEITDNPYMTSIPRNAFQGLCNETLTLKLYNNGFTSVQGYAFNGTKLDAVYLNKNKYLTVIDKDAFGGVYSGPSLLDVSQTSVTALPSKGLEHLKELRARNTWTLDKTHTCPPCPAPELLGGDSVFLFPPKPKDTLMISRTPEVTCVVVDVSHEEGEVKFNWYVDGVEVHNAKTKPREEQYNSTYRVVSVLTVLHQDWLNGKEYKCKVSNKALPAPIEKTISKAKGQPREPQVYTLPPCREEMTKNQVSLWCLVKGFYPSDIAVEWESNGQPENNYKTTPPVLDSDGSFFLYSKLTVDKSRWQQGNVFSCSVMHEALHNHYTQKSLSLSPGK
chain 2: DKTHTCPPCPAPELLGGDSVFLFPPKPKDTLMISRTPEVTCVVVDVSHEEGEVKFNWYVDGVEVHNAKTKPREEQYNSTYRVVSVLTVLHQDWLNGKEYKCKVSNKALPAPIEKTISKAKGQPREPQVCTLPPSREEMTKNQVSLSCAVKGFYPSDIAVEWESNGQPENNYKTTPPVLDSDGSFFLVSKLTVDKSRWQQGNVFSCSVMHEALHNHYTQKSLSLSPGK
notes: Knob-in-hole heterodimer; also called TSHR260 2P2R huIgG1 Fc P238D/D270E/P271G
B1: the Kd in assay [1] worked out at 987 nM; in assay [2], 3490 nM. Also, the binding result in assay [3] is on record as “no binding (tested: about 2.4e-6 M)”.

A word on the Kd: it is the concentration at which binding is half-saturated. Read a high Kd as a looser complex.

Values taken from patent publication US20260167684A1 (MERIDA BIOSCIENCES, published 2026).
